Tests used:
[1] = test system: HeLa Kyoto; assay: solubility in G1/S (NP-40 vs SDS abundance) (log2 ratio); higher = more soluble; settings: cell cycle stage: G1/S
[2] = test system: HeLa Kyoto; assay: solubility change mitosis vs G1/S (difference of NP-40 vs SDS log2 ratios) (log2 ratio difference); higher = more soluble in mitosis
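Throughout, for solubility change mitosis vs G1/S (difference of NP-40 vs SDS log2 ratios): synchronized HeLa Kyoto cells (double thymidine block for G1/S, nocodazole release for mitosis), protein amounts in NP-40 versus SDS lysates quantified by mass spectrometry, three biological replicates.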
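Throughout, for solubility in G1/S (NP-40 vs SDS abundance): HeLa Kyoto cells arrested at G1/S by double thymidine block, proteins quantified by TMT10plex mass spectrometry in mild NP-40 versus SDS extracts, three biological replicates.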

Sequence: MNPQQQRMAAIGTDKELSDLLDFSAMFSPPVNSGKTRPTTLGSSQFSGSGIDERGGTTSWGTSGQPSPSYDSSRGFTDSPHYSDHLNDSRLGAHEGLSPTPFMNSNLMGKTSERGSFSLYSRDTGLPGCQSSLLRQDLGLGSPAQLSSSGKPGTAYYSFSATSSRRRPLHDSAALDPLQAKKVRKVPPGLPSSVYAPSPNSDDFNRESPSYPSPKPPTSMFASTFFMQDGTHNSSDLWSSSNGMSQPGFGGILGTSTSHMSQSSSYGNLHSHDRLSYPPHSVSPTDINTSLPPMSSFHRGSTSSSPYVAASHTPPINGSDSILGTRGNAAGSSQTGDALGKALASIYSPDHTSSSFPSNPSTPVGSPSPLTGTSQWPRPGGQAPSSPSYENSLHSLQSRMEDRLDRLDDAIHVLRNHAVGPSTSLPAGHSDIHSLLGPSHNAPIGSLNSNYGGSSLVASSRSASMVGTHREDSVSLNGNHSVLSSTVTTSSTDLNHKTQENYRGGLQSQSGTVVTTEIKTENKEKDENLHEPPSSDDMKSDDESSQKDIKVSSRGRTSSTNEDEDLNPEQKIEREKERRMANNARERLRVRDINEAFKELGRMCQLHLKSEKPQTKLLILHQAVAVILSLEQQVRERNLNPKAACLKRREEEKVSAVSAEPPTTLPGTHPGLSETTNPMGHM [TCF12]
- solubility in G1/S (log2) [1]: 0.156
- solubility change mitosis (log2) [2]: -0.221

Sequence: MNRSRAIVQRGRVLPPPAPLDTTNLAGRRTLQGRAKMASVPVYCLCRLPYDVTRFMIECDMCQDWFHGSCVGVEEEKAADIDLYHCPNCEVLHGPSIMKKRRGSSKGHDTHKGKPVKTGSPTFVRELRSRTFDSSDEVILKPTGNQLTVEFLEENSFSVPILVLKKDGLGMTLPSPSFTVRDVEHYVGSDKEIDVIDVTRQADCKMKLGDFVKYYYSGKREKVLNVISLEFSDTRLSNLVETPKIVRKLSWVENLWPEECVFERPNVQKYCLMSVRDSYTDFHIDFGGTSVWYHVLKGEKIFYLIRPTNANLTLFECWSSSSNQNEMFFGDQVDKCYKCSVKQGQTLFIPTGWIHAVLTPVDCLAFGGNFLHSLNIEMQLKAYEIEKRLSTADLFRFPNFETICWYVGKHILDIFRGLRENRRHPASYLVHGGKALNLAFRAWTRKEALPDHEDEIPETVRTVQLIKDLAREIRLVEDIFQQNVGKTSNIFGLQRIFPAGSIPLTRPAHSTSVSMSRLSLPSKNGSKKKGLKPKELFKKAERKGKESSALGPAGQLSYNLMDTYSHQALKTGSFQKAKFNITGACLNDSDDDSPDLDLDGNESPLALLMSNGSTKRVKSLSKSRRTKIAKKVDKARLMAEQVMEDEFDLDSDDELQIDERLGKEKATLIIRPKFPRKLPRAKPCSDPNRVREPGEVEFDIEEDYTTDEDMVEGVEGKLGNGSGAGGILDLLKASRQVGGPDYAALTEAPASPSTQEAIQGMLCMANLQSSSSSPATSSLQAWWTGGQDRSSGSSSSGLGTVSNSPASQRTPGKRPIKRPAYWRTESEEEEENASLDEQDSLGACFKDAEYIYPSLESDDDDPALKSRPKKKKNSDDAPWSPKARVTPTLPKQDRPVREGTRVASIETGLAAAAAKLAQQELQKAQKKKYIKKKPLLKEVEQPRPQDSNLSLTVPAPTVAATPQLVTSSSPLPPPEPKQEALSGSLADHEYTARPNAFGMAQANRSTTPMAPGVFLTQRRPSVGSQSNQAGQGKRPKKGLATAKQRLGRILKIHRNGKLLL [PHF8]
- solubility in G1/S (log2) [1]: -0.765
- solubility change mitosis (log2) [2]: 0.336

Sequence: MNSDQDVALKLAQERAEIVAKYDRGREGAEIEPWEDADYLVYKVTDRFGFLHEEELPDHNVAVERQKHLEIERTTKWLKMLKGWEKYKNTEKFHRRIYKGIPLQLRGEVWALLLEIPKMKEETRDLYSKLKHRARGCSPDIRQIDLDVNRTFRDHIMFRDRYGVKQQSLFHVLAAYSIYNTEVGYCQGMSQITALLLMYMNEEDAFWALVKLFSGPKHAMHGFFVQGFPKLLRFQEHHEKILNKFLSKLKQHLDSQEIYTSFYTMKWFFQCFLDRTPFTLNLRIWDIYIFEGERVLTAMSYTILKLHKKHLMKLSMEELVEFFQETLAKDFFFEDDFVIEQLQISMTELKRAKLDLPEPGKEDEYPKKPLGQLPPELQSWGVHHLSNGQRSVGRPSPLASGRRESGAPHRRHEHSPHPQSRTGTPERAQPPRRKSVEEESKKLKDEADFQRKLPSGPQDSSRQYNHAAANQNSNATSNIRKEFVPKWNKPSDVSATERTAKYTMEGKGRAAHPALAVTVPGPAEVRVSNVRPKMKALDAEDGKRGSTASQYDNVPGPELDSGASVEEALERAYSQSPRHALYPPSPRKHAEPSSSPSKVSNKFTFKVQPPSHARYPSQLDGEARGLAHPPSYSNPPVYHGNSPKHFPTANSSFASPQFSPGTQLNPSRRPHGSTLSVSASPEKSYSRPSPLVLPSSRIEVLPVDTGAGGYSGNSGSPKNGKLIIPPVDYLPDNRTWSEVSYTYRPETQGQSWTRDASRGNLPKYSAFQLAPFQDHGLPAVSVDSPVRYKASPAAEDASPSGYPYSGPPPPAYHYRNRDGLSIQESVLL [USP6NL]
- solubility in G1/S (log2) [1]: -0.388
- solubility change mitosis (log2) [2]: -0.321

Sequence: MNSGRPETMENLPALYTIFQGEVAMVTDYGAFIKIPGCRKQGLVHRTHMSSCRVDKPSEIVDVGDKVWVKLIGREMKNDRIKVSLSMKVVNQGTGKDLDPNNVIIEQEERRRRSFQDYTGQKITLEAVLNTTCKKCGCKGHFAKDCFMQPGGTKYSLIPDEEEEKEEAKSAEFEKPDPTRNPSRKRKKEKKKKKHRDRKSSDSDSSDSESDTGKRARHTSKDSKAAKKKKKKKKHKKKHKE [ZCCHC17]
- solubility in G1/S (log2) [1]: -1.32
- solubility change mitosis (log2) [2]: 0.661

Sequence: MNYVGQLAGQVFVTVKELYKGLNPATLSGCIDIIVIRQPNGNLQCSPFHVRFGKMGVLRSREKVVDIEINGESVDLHMKLGDNGEAFFVQETDNDQEVIPMHLATSPILSEGASRMECQLKRGSVDRMRGLDPSTPAQVIAPSETPSSSSVVKKRRKRRRKSQLDSLKRDDNMNTSEDEDMFPIEMSSDEAMELLESSRTLPNDIPPFQDDIPEENLSLAVIYPQSASYPNSDREWSPTPSPSGSRPSTPKSDSELVSKSTERTGQKNPEMLWLWGELPQAAKSSSPHKMKESSPLSSRKICDKSHFQAIHSESSDTFSDQSPTLVGGALLDQNKPQTEMQFVNEEDLETLGAAAPLLPMIEELKPPSASVVQTANKTDSPSRKRDKRSRHLGADGVYLDDLTDMDPEVAALYFPKNGDPSGLAKHASDNGARSANQSPQSVGSSGVDSGVESTSDGLRDLPSIAISLCGGLSDHREITKDAFLEQAVSYQQFVDNPAIIDDPNLVVKIGSKYYNWTTAAPLLLAMQAFQKPLPKATVESIMRDKMPKKGGRWWFSWRGRNTTIKEESKPEQCLAGKAHSTGEQPPQLSLATRVKHESSSSDEERAAAKPSNAGHLPLLPNVSYKKTLRLTSEQLKSLKLKNGPNDVVFSVTTQYQGTCRCEGTIYLWNWDDKVIISDIDGTITRSDTLGHILPTLGKDWTHQGIAKLYHKVSQNGYKFLYCSARAIGMADMTRGYLHWVNERGTVLPQGPLLLSPSSLFSALHREVIEKKPEKFKVQCLTDIKNLFFPNTEPFYAAFGNRPADVYSYKQVGVSLNRIFTVNPKGELVQEHAKTNISSYVRLCEVVDHVFPLLKRSHSSDFPCSDTFSNFTFWREPLPPFENQDIHSASA [LPIN1]
- solubility in G1/S (log2) [1]: 0.0583
- solubility change mitosis (log2) [2]: -0.0904

Sequence: MPAIAVLAAAAAAWCFLQVESRHLDALAGGAGPNHGNFLDNDQWLSTVSQYDRDKYWNRFRDDDYFRNWNPNKPFDQALDPSKDPCLKVKCSPHKVCVTQDYQTALCVSRKHLLPRQKKGNVAQKHWVGPSNLVKCKPCPVAQSAMVCGSDGHSYTSKCKLEFHACSTGKSLATLCDGPCPCLPEPEPPKHKAERSACTDKELRNLASRLKDWFGALHEDANRVIKPTSSNTAQGRFDTSILPICKDSLGWMFNKLDMNYDLLLDPSEINAIYLDKYEPCIKPLFNSCDSFKDGKLSNNEWCYCFQKPGGLPCQNEMNRIQKLSKGKSLLGAFIPRCNEEGYYKATQCHGSTGQCWCVDKYGNELAGSRKQGAVSCEEEQETSGDFGSGGSVVLLDDLEYERELGPKDKEGKLRVHTRAVTEDDEDEDDDKEDEVGYIW [SPOCK1]
- solubility in G1/S (log2) [1]: -0.59
- solubility change mitosis (log2) [2]: 0.345

Sequence: MPAPPCASCHAARAALRRPLSGQALCGACFCAAFEAEVLHTVLAGRLLPPGAVVAVGASGGKDSTVLAHVLRALAPRLGISLQLVAVDEGIGGYRDAALAAVRRQAARWELPLTVVAYEDLFGGWTMDAVARSTAGSGRSRSCCTFCGVLRRRALEEGARRVGATHIVTGHNADDMAETVLMNFLRGDAGRLARGGGLGSPGEGGALPRCRPLQFASQKEVVLYAHFRRLDYFSEECVYAPEAFRGHARDLLKRLEAARPSAVLDLVHSAERLALAPAARPPRPGACSRCGALASRALCQACALLDGLNRGRPRLAIGKGRRGLDEEATPGTPGDPARPPASKAVPTF [CTU1]
- solubility in G1/S (log2) [1]: 0.107
- solubility change mitosis (log2) [2]: 0.0895

Sequence: MPGRHVSRVRALYKRVLQLHRVLPPDLKSLGDQYVKDEFRRHKTVGSDEAQRFLQEWEVYATALLQQANENRQNSTGKACFGTFLPEEKLNDFRDEQIGQLQELMQEATKPNRQFSISESMKPKF [SDHAF3]
- solubility in G1/S (log2) [1]: 0.106
- solubility change mitosis (log2) [2]: 0.134

Sequence: MPKRSCPFADVAPLQLKVRVSQRELSRGVCAERYSQEVFEKTKRLLFLGAQAYLDHVWDEGCAVVHLPESPKPGPTGAPRAARGQMLIGPDGRLIRSLGQASEADPSGVASIACSSCVRAVDGKAVCGQCERALCGQCVRTCWGCGSVACTLCGLVDCSDMYEKVLCTSCAMFET [SIVA1]
- solubility in G1/S (log2) [1]: -0.0737
- solubility change mitosis (log2) [2]: -0.098

Sequence: MPLGLKPTCSVCKTTSSSMWKKGAQGEILCHHCTGRGGAGSGGAGSGAAGGTGGSGGGGFGAATFASTSATPPQSNGGGGGKQSKQEIHRRSARLRNTKYKSAPAAEKKVSTKGKGRRHIFKLKNPIKAPESVSTIITAESIFYKGVYYQIGDVVSVIDEQDGKPYYAQIRGFIQDQYCEKSAALTWLIPTLSSPRDQFDPASYIIGPEEDLPRKMEYLEFVCHAPSEYFKSRSSPFPTVPTRPEKGYIWTHVGPTPAITIKESVANHL [GATAD1]
- solubility in G1/S (log2) [1]: -0.0455
- solubility change mitosis (log2) [2]: 0.25

Sequence: MPLPEPSEQEGESVKAGQEPSPKPGTDVIPAAPRKPREFSKLVLLTASDQDEDGVGSKPQEVHCVLSLEMAGPATLASTLQILPVEEQGGVVQPALEMPEQKCSKLDAAAPQSLEFLRTPFGGRLLVLESFLYKQEKAVGDKVYWKCRQHAELGCRGRAITRGLRATVMRGHCHAPDEQGLEARRQREKLPSLALPEGLGEPQGPEGPGGRVEEPLEGVGPWQCPEEPEPTPGLVLSKPALEEEEAPRALSLLSLPPKKRSILGLGQARPLEFLRTCYGGSFLVHESFLYKREKAVGDKVYWTCRDHALHGCRSRAITQGQRVTVMRGHCHQPDMEGLEARRQQEKAVETLQAGQDGPGSQVDTLLRGVDSLLYRRGPGPLTLTRPRPRKRAKVEDQELPTQPEAPDEHQDMDADPGGPEFLKTPLGGSFLVYESFLYRREKAAGEKVYWTCRDQARMGCRSRAITQGRRVTVMRGHCHPPDLGGLEALRQREKRPNTAQRGSPGGPEFLKTPLGGSFLVYESFLYRREKAAGEKVYWTCRDQARMGCRSRAITQGRRVMVMRRHCHPPDLGGLEALRQREHFPNLAQWDSPDPLRPLEFLRTSLGGRFLVHESFLYRKEKAAGEKVYWMCRDQARLGCRSRAITQGHRIMVMRSHCHQPDLAGLEALRQRERLPTTAQQEDPEKIQVQLCFKTCSPESQQIYGDIKDVRLDGESQ [FLYWCH1]
- solubility in G1/S (log2) [1]: -0.557
- solubility change mitosis (log2) [2]: 0.409

Reference: the supplement of paper PMC5998384
